{
  "source": "paper PMC8217473",
  "about": "(2021)",
  "key": {"[1]": {"molecular_target": "T1, RBD-Fc (receptor binding domain of SARS-CoV-2 spike fused to Fc) (SARS-CoV-2, UniProt P0DTC2)", "test": "SPR"}, "[2]": {"molecular_target": "T1, RBD-Fc (receptor binding domain of …)", "test": "SPR", "remark": "listed apart in the source"}},
  "note": "Where two headings read alike, the source gives them in different places.",
  "data": [
    {"binder": "3N39 mutant sACE2-His (domain or fragment) QSTIEEQVETFLDNFNHKAEDLFYQSSLASWNYNTNITEENVQNMNIAGDKWSAFLKEQSTFAQMYPLQEIQHLTVKLQLQALQQNGSSVLSEDKSKRLNTILNTMSTIYSTGKVCNPDNPQECLLLEPGLNEIMANSLDYNERLWAWESWRSEVGKQLRPLYEEYVVLKNEMARANHYEDYGDYWRGDYEVNGVDGYDYSRGQLIEDVEHTFEEIKPLYEHLHAYVRAKLMNAYPSYISPIGCLPAHLLGDMWGRFWTNLYSLTVPFGQKPNIDVTDAMVDQAWDAQRIFKEAEKFFVSVGLPNMTQGFWENSMLTDPGNVQKAVCHPTAWDLGKGDFRILMCTKVTMDDFLTAHHEMGHIQYDMAYAAQPFLLRNGANEGFHEAVGEIMSLSAATPKHLKSIGLLSPDFQEDNETEINFLLKQALTIVGTLPFTYMLEKWRWMVFKGEIPKDQWMKKWWEMKREIVGVVEPVPHDETYCDPASLFHVSNDYSFIRYYTRTLYQFQFQEALCQAAKHEGPLHKCDISNSTEAGQKLFNMLRLGKSEPWTLALENVVGAKNMNVRPLLNYFEPLFTWLKDQNKNSFVGWSTDWSPYAD", "values": [
      {"measurement": "Kd", "setting": "[1]", "result": 0.29, "unit": "nM"},
      {"measurement": "Kd", "setting": "[2]", "result": 0.32, "unit": "nM"}
    ]},
    {"binder": "3N39v2 mutant sACE2-His (domain or fragment) QSTIEEQVKTFLDNFNHKAEDLFYQSSLASWNYNTNITEENVQNMNNAGDKWSAFLKEQSTFAQMYPLQEIQNLTVKLQLQALQQNGSSVLSEDKSKRLNTILNTMSTIYSTGKVCNPDNPQECLLLEPGLNEIMANSLDYNERLWAWESWRSEVGKQLRPLYEEYVVLKNEMARANHYEDYGDYWRGDYEVNGVDGYDYSRGQLIEDVEHTFEEIKPLYEHLHAYVRAKLMNAYPSYISPIGCLPAHLLGDMWGRFWTNLYSLTVPFGQKPNIDVTDAMVDQAWDAQRIFKEAEKFFVSVGLPNMTQGFWENSMLTDPGNVQKAVCHPTAWDLGKGDFRILMCTKVTMDDFLTAHHEMGHIQYDMAYAAQPFLLRNGANEGFHEAVGEIMSLSAATPKHLKSIGLLSPDFQEDNETEINFLLKQALTIVGTLPFTYMLEKWRWMVFKGEIPKDQWMKKWWEMKREIVGVVEPVPHDETYCDPASLFHVSNDYSFIRYYTRTLYQFQFQEALCQAAKHEGPLHKCDISNSTEAGQKLFNMLRLGKSEPWTLALENVVGAKNMNVRPLLNYFEPLFTWLKDQNKNSFVGWSTDWSPYAD", "values": [
      {"measurement": "Kd", "setting": "[2]", "result": 0.54, "unit": "nM"}
    ]}
  ]
}
